Results taken from the supplement of paper PMC10567573.

B1: SNURF (parent)
chain: QVPVVDFQAELRQAFLAETPRGG
B2: MATN2 (parent)
chain: FIVDILQFLDIGPDVTRVGLLQYG

Variants of: B1
Assay: protein stability index of a GFP-peptide fusion (GPS, HEK-293T) (PSI 1-6); higher = more stable
Details: c terminus: native
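Note: lentivirally expressed fusions sorted by FACS into six bins by GFP to DsRed ratio, PSI derived from sequencing read proportions per bin multiplied by bin number.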

| Variant | protein stability index |
| --- | --- |
| QVPVVCFQAELRQAFLAETPRGG | 4.03 |
| QVPVVNFQAELRQAFLAETPRGG | 3.2 |
| QVPVVEFQAELRQAFLAETPRGG | 4.69 |
| QVPVVRFQAELRQAFLAETPRGG | 2.21 |
| QVPVVDTQAELRQAFLAETPRGG | 4.49 |
| QVPVVDSQAELRQAFLAETPRGG | 3.5 |
| QVPVVDWQAELRQAFLAETPRGG | 2.9 |
| QVPVADFQAELRQAFLAETPRGG | 2.08 |
| QVPVWDFQAELRQAFLAETPRGG | 3.5 |
| QVPVSDFQAELRQAFLAETPRGG | 4.05 |
| QVPVLDFQAELRQAFLAETPRGG | 3.11 |
| QVPVDDFQAELRQAFLAETPRGG | 1.7 |
| QVPVFDFQAELRQAFLAETPRGG | 2.39 |
| QVPVHDFQAELRQAFLAETPRGG | 3.52 |
| QVPVIDFQAELRQAFLAETPRGG | 4.13 |
| QVPVTDFQAELRQAFLAETPRGG | 2.34 |

| Variant | protein stability index |
| --- | --- |
| QVPAVDFQAELRQAFLAETPRGG | 3.33 |
| QVPTVDFQAELRQAFLAETPRGG | 2.69 |
| QVPWVDFQAELRQAFLAETPRGG | 2.09 |
| QVPMVDFQAELRQAFLAETPRGG | 3.48 |
| QVPFVDFQAELRQAFLAETPRGG | 3.43 |
| QVPLVDFQAELRQAFLAETPRGG | 2.5 |
| QVPVVDFCAELRQAFLAETPRGG | 3.49 |
| QQPVVDFQAELRQAFLAETPRGG | 1.5 |
| QKPVVDFQAELRQAFLAETPRGG | 3.98 |
| QGPVVDFQAELRQAFLAETPRGG | 2.61 |
| QVDVVDFQAELRQAFLAETPRGG | 3.02 |
| QVQVVDFQAELRQAFLAETPRGG | 4.82 |
| QVVVVDFQAELRQAFLAETPRGG | 3.01 |
| SVPVVDFQAELRQAFLAETPRGG | 2.31 |
| NVPVVDFQAELRQAFLAETPRGG | 2.49 |
| TVPVVDFQAELRQAFLAETPRGG | 3.88 |

Variants of: B2
Assay: as above
Details: c terminus: a fixed tail appended

| Variant | protein stability index |
| --- | --- |
| FIVDILCFLDIGPDVTRVGLLQYG | 2.24 |
| FIVDILDFLDIGPDVTRVGLLQYG | 3.01 |
| FIVDILTFLDIGPDVTRVGLLQYG | 3.12 |
| FIVDIPQFLDIGPDVTRVGLLQYG | 1.3 |
| FIVDIWQFLDIGPDVTRVGLLQYG | 3.3 |
| FIVDILQFLDIGPDVTRVDLLQYG | 3.21 |
| FIVDILQFLDIGPDVTRVILLQYG | 2.67 |
| FIVDILQFLDIGPDVTRVALLQYG | 2.26 |
| FIVDILQFLDIGPDVTRVPLLQYG | 2.58 |
| FIPDILQFLDIGPDVTRVGLLQYG | 2.84 |
| FINDILQFLDIGPDVTRVGLLQYG | 3.33 |
| FIVDILQNLDIGPDVTRVGLLQYG | 1.68 |
| FIVDILQVLDIGPDVTRVGLLQYG | 2.94 |
| FIVDILQLLDIGPDVTRVGLLQYG | 2.43 |
| FIVDILQILDIGPDVTRVGLLQYG | 2.65 |
| FIVDILQQLDIGPDVTRVGLLQYG | 2.49 |
| FIVDILQFLDIGPDVTMVGLLQYG | 2.05 |
| FIVDILQFLDIGPDVTFVGLLQYG | 2.23 |
| FIVDILQFLDIGPDVTRMGLLQYG | 2.55 |
| FIVDILQFLDIGPDVTRRGLLQYG | 1.82 |
| FIVDILQFLDIGPDVTRVGLLQRG | 3.61 |

| Variant | protein stability index |
| --- | --- |
| FIVDILQFLDIGPDVTRVGLLQQG | 2.29 |
| FIVDILQFLDIGPDVTRVGLLQMG | 2.75 |
| FIVDVLQFLDIGPDVTRVGLLQYG | 3.23 |
| FIVDELQFLDIGPDVTRVGLLQYG | 3.96 |
| FIVDLLQFLDIGPDVTRVGLLQYG | 2.26 |
| FIVDFLQFLDIGPDVTRVGLLQYG | 3.88 |
| FGVDILQFLDIGPDVTRVGLLQYG | 3.67 |
| EIVDILQFLDIGPDVTRVGLLQYG | 2.04 |
| QIVDILQFLDIGPDVTRVGLLQYG | 2.03 |
| FIVDILQFLDIGPDVTRVGLLQYE | 1.99 |
| FIVDILQFLDMGPDVTRVGLLQYG | 3.73 |
| FIVDILQFLDKGPDVTRVGLLQYG | 3.5 |
| FIVDILQFLDQGPDVTRVGLLQYG | 2.77 |
| FIVDILQFLDIGPDVTRVGYLQYG | 3.45 |
| FIVDILQFLDIGPDVTRVGNLQYG | 3.71 |
| FIVDILQFLDIGPDVTRVGCLQYG | 1.87 |
| FIVDILQFQDIGPDVTRVGLLQYG | 2.47 |
| FIVDILQFFDIGPDVTRVGLLQYG | 3.76 |
| FIVDILQFEDIGPDVTRVGLLQYG | 1.72 |
| FIVDILQFLDISPDVTRVGLLQYG | 2.61 |
| FIVDILQFLDIHPDVTRVGLLQYG | 3.69 |

| Variant | protein stability index |
| --- | --- |
| FIVDILQFLDILPDVTRVGLLQYG | 2.63 |
| FIVDILQFLDIGEDVTRVGLLQYG | 2.72 |
| FIVDILQFLDIGHDVTRVGLLQYG | 2.73 |
| FIVDILQFLDIGMDVTRVGLLQYG | 2.4 |
| FIVDILQFLDIGFDVTRVGLLQYG | 1.91 |
| FIVDILQFLDIGADVTRVGLLQYG | 3.91 |
| FIVDILQFLDIGPDNTRVGLLQYG | 2.49 |
| FIVDILQFLDIGPDYTRVGLLQYG | 3.39 |
| FIVDILQFLDIGPDLTRVGLLQYG | 1.88 |
| FIVDILQFLEIGPDVTRVGLLQYG | 3.48 |
| FIVDILQFLLIGPDVTRVGLLQYG | 2.62 |
| FIVDILQFLDIGPDVLRVGLLQYG | 3.03 |
| FIVDILQFLDIGPDVGRVGLLQYG | 2.19 |
| FIVDILQFLDIGPDVWRVGLLQYG | 3.52 |
| FIVDILQFLDIGPDVRRVGLLQYG | 2.33 |
| FIVDILQFLDIGPDVDRVGLLQYG | 2.7 |
| FIVDILQFLDIGPDVTRVGLFQYG | 2.62 |
| FIVDILQFLDIGPDVTRVGLWQYG | 3.27 |
| FIVDILQFLDIGPDVTRVGLKQYG | 2.13 |
| FIVDILQFLDIGPDVTRVGLPQYG | 4.3 |
| FIVDILQFLDIGPDVTRVGLSQYG | 2.57 |
